Substitutions are numbered along the chain they refer to.
Tests used:
FAM19A2 = target: T1, FAM19A2 (UniProt Q8N3H0 31-131, limits assumed); assay: Western blot on extracts of HEK293T cells stably transfected with FAM19A family genes
T1 construct: Member of the group other FAM19A subfamily proteins; also called other FAM19A subfamily proteins; other proteins in the FAM19A subfamily
Protocol: (§1) HEK293T cells stably transfected with genes encoding the FAM19A family of proteins were lysed in buffer containing 50 mM Tris-HCL (pH 6.8), 2% SDS, 10% glycerol, 100 mM mercaptoethanol, and bromophenol blue. Whole-cell extracts were resolved on SDS-polyacrylamide (PAGE) gels and transferred to nitrocellulose blotting membranes in a Bio-Rad Trans-Blot electrophoresis apparatus (Hercules, CA, USA). The blots were blocked in Tris-buffered saline containing 0.3% Tween 20 and 5% skim milk, and incubated with anti-FAM19A5 antibody at room temperature for 3 h. They were then washed three times with TBS/0.3% Tween 20. Antibody binding was subsequently detected by incubation with secondary antibodies linked to horseradish peroxidase (Jackson ImmunoReserch Laboratories, West Grove, PA, USA). The blots were washed three times, and immunoreactive bands were visualized by exposure to X-ray film for 0.5 or 10 min, after application of GE healthcare ECL reagents (Buckinghamshire, UK). […] Cells were then blocked with 3% BSA and 0.1% Triton X-100 in PBS for 30 min at room temperature. Primary antibody (the anti-FAM19A5 antibody 1-65) was applied overnight at 4° C. After several washes with PBS, appropriate secondary antibodies were applied for 30 min. Subsequently, the cells were washed, mounted, and observed under a fluorescence or confocal microscope (LSM700; Zeiss, Goettingen, Germany). Nuclei were stained with Hoechst 33342.

FAM19A4 = target: T2, FAM19A4 (UniProt Q96LR4 36-140, limits assumed); assay: as above
T2 construct: Member of the group other FAM19A subfamily proteins; also called other FAM19A subfamily proteins; other proteins in the FAM19A subfamily
T2 sequence (Q96LR4 36-140 limits assumed): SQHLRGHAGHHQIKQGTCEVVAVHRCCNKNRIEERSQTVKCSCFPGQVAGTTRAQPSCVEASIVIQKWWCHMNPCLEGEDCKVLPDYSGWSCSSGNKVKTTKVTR
Protocol: as §1

FAM19A3 = target: T3, FAM19A3 (UniProt Q7Z5A8 31-133, limits assumed); assay: as above
T3 construct: Member of the group other FAM19A subfamily proteins; also called other FAM19A subfamily proteins; other proteins in the FAM19A subfamily
T3 sequence (Q7Z5A8 31-133 limits assumed): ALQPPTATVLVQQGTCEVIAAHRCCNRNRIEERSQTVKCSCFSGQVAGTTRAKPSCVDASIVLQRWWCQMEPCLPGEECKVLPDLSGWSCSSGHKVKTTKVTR
Protocol: as §1

FAM19A1 = FAM19A1 (UniProt Q7Z5A9 20-133); assay: as above
Protocol: as §1

FAM19A5-M3 = target: T4, FAM19A5-M3; assay: ELISA on phage-displayed FAM19A5 mutants; y axis without label; IgG only bars 0.02 to 0.2
T4 construct: also called FAM19A5 mutant M3
T4 FAM19A5 mutant: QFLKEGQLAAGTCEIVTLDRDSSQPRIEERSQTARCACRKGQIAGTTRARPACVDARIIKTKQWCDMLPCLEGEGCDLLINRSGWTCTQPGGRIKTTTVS

FAM19A5-M4 = target: T5, FAM19A5-M4; assay: as above
T5 construct: also called FAM19A5 mutant M4
T5 FAM19A5 mutant: T4 FAM19A5 mutant with I27R, E28T, E29I, R30A, S31R, A34V, R35K, A37S, R39F, K40P

FAM19A5-M5 = target: T6, FAM19A5-M5; assay: as above
T6 construct: also called FAM19A5 mutant M5
T6 FAM19A5 mutant: T4 FAM19A5 mutant with I27R, E28T, E29I, R30A, S31R, A49N, R50K, A52S

FAM19A5-M2 = target: T7, FAM19A5-M2; assay: as above
T7 construct: also called FAM19A5 mutant M2
T7 FAM19A5 mutant: T4 FAM19A5 mutant with D21C, S22C, S23N, Q24K, P25N, I27R, E28T, E29I, R30A, S31R

T1 sequence (Q8N3H0 31-131 limits assumed): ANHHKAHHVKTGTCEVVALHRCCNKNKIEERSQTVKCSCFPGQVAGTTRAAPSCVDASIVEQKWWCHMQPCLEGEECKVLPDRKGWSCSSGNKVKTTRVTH

binding result (FAM19A2): no binding | binding result (FAM19A4): no binding | binding result (FAM19A3): no binding | binding result (FAM19A1): no binding | binding result (FAM19A5-M3): binds | binding result (FAM19A5-M4): binds | binding result (FAM19A5-M5): binds | binding result (FAM19A5-M2): binds
B1: chimeric anti-FAM19A5-IgG2/4 monoclonal antibody (1-65) (antibody, V domains shown)
VH: AVTLDESGGGLQTPGGALSLVCKASGFTFSSYQMGWVRQAPGKGLEWVGVINKSGSDTSYGSAVKGRATISRDNGQSTVRLQLNNLRAEDTGTYFCAKGSASYITAATIDAWGHGTEVIVSS
VL: ALTQPSSVSANPGETVKITCSGGGSSGYGYGWYQQKSPSSAPLTVIYWNDKRPSDIPSRFSGSKSGSTHTLTITGVQAEDEAVYFCGNDDYSSDSGYVGVFGAGTTLTVL
notes: Chicken-derived variable domains; also called anti-FAM19A5 antibody 1-65; Anti-FAM19A5 (1-65)

Reference: patent US20250236663A1 (NEURACLE SCIENCE, published 2025)
